Consider one molecule from patent US20110059013A1, “ANTI-ROBO4 ANTIBODIES AND USES THEREFOR” (Genentech, Inc., priority 2007, published 2011).

The subject of test [1] is HUVEC. Description: HUVEC cellular migration assay. In kind it is cell-based, human. The procedure:
Robo4-Fc and Robo4-His were contacted with vascular ECs using a HUVEC migration assay and in the presence or absence of VEGF.
Endothelial cell migration was not blocked by anti-Robo4 antibody in an in vitro assay using human umbilical vascular endothelial cells (HUVEC) cellular migration assay. HUVECs endogenously express human Robo4. The assay was performed as follows. HUVECs were pre-incubated for 2 hours with VEGF.

The target in test [2] is T1, UNC5B (Homo sapiens, UniProt Q8IZJ1).
T1 construct: extracellular domain of UNC5B fused to an Fc region; Fc region
T1 sequence (Q8IZJ1 27-377 limits assumed, species assumed): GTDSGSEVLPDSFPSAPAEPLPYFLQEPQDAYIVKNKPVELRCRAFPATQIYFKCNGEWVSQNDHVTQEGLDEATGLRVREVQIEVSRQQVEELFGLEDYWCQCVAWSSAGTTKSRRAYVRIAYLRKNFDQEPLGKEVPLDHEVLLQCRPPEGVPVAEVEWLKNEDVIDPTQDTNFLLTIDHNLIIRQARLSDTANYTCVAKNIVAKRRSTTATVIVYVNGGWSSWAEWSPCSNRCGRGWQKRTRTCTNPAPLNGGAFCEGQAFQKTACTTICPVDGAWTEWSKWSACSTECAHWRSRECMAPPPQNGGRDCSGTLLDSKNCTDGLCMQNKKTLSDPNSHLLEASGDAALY
Description: SPR binding to immobilized UNC5B-Fc. The procedure:
It has been shown that netrin binding to members of the uncoordinated-5 (UNC5) family of receptors (UNC5A, B, C, and D) results in neural axon […] (Klagsbrun, M. and Eichmann, A., Cytokine & Growth Factor Reviews 16(4-5):535-548 (2005)). Netrin-UNC5B interaction has been implicated in angiogenesis (Klagsbrun, M. and Eichmann, A., supra (2005) and Lu, X. et al., Nature 432:179-186 (2004)). The interaction of Robo4 with UNC5B in vitro was determined by SPR binding measurements in which UNC5B-Fc fusion protein (extracellular domain of UNC5B fused to an Fc region) was immobilized on a chip and soluble Robo4-Fc or Robo4-His was allowed to interact with it at different concentrations.

B1: Robo4-His: soluble Robo4 extracellular domain fused to a C-terminal Histidine tag (protein)
chain: QDSPPQILVHPQDQLFQGPGPARMSCQASGQPPPTIRWLLNGQPLSMVPPDPHHLLPDGTLLLLQPPARGHAHDGQALSTDLGVYTCEASNRLGTAVSRGARLSVAVLREDFQIQPRDMVAVVGEQFTLECGPPWGHPEPTVSWWKDGKPLALQPGRHTVSGGSLLMARAEKSDEGTYMCVATNSAGHRESRAARVSIQEPQDYRAHHHHHHHH
Consider B1, for which the “blocking of endothelial cell migration” value in test [1] (HUVECs pre-incubated with VEGF, 16 hours) was “Neither anti-Robo4 nor the soluble Robo4 extracellular domain fusion proteins (Robo4-Fc and Robo4-His) blocked EC migration”. Further, the “induction of EC migration” value in test [1] (alone, absence of VEGF) is recorded as “did not induce EC migration”. In test [2], the “interaction with UNC5B” value is “interacts in vitro with UNC5B”.
